% inhibition in P3X63 cytotoxicity assay, extract 1/150 data for 18 molecules are collected here from patent US20190055322A1.

B1: Nanobody 083 (7C10-40GS-11B09) (VHH)
chain: EVQLVESGGGLVQAGGSLRLSCTASGRTLSSYTMGWFRQAPGTEREFVAAMTRSGFNTYYADSVKGRFTISRDSTENTMALQMSSLKPEDTAVYYCTAGRGLTSYRADYWGQGTLVTVSSGGGGSGGGGSGGGGSGGGGSGGGGSGGGGSGGGGSGGGGSEVQLVESGGGLVQAGGSLRLSCAASRLTFNHYNMGWFRQAPGKERERVAEVTWSGDKIYYVDSVKGRFTISRDNTPNPVYLYLQMNSLKPEDTAVYYCATAPRGLPYANGYWGQGTLVTVSS
B2: Nanobody 264 (1E11-40GS-2B02) (VHH)
chain: EVQLVESGGGLVQPGGSLRLSCAASGSTRSVNPMAWFRQAPGRQREWVATISRSGYATYADSVKGRFTISGDNAKSSVYLQMNSLKPEDTAVYYCVTGTYWGQGTLVTVSSGGGGSGGGGSGGGGSGGGGSGGGGSGGGGSGGGGSGGGGSEVQLVESGGGLVQPGDSLRLSCAASGRILSINNMVWYRQAPGKQRELVAHITSSGSTGYADSVKGRFTISRDNAKNTFYLQMTNLNPEDTAVYYCNCWVSSDSNAPLKNYWGQGTLVTVSS
B3: Nanobody 234 (7C10-40GS-5H01) (VHH)
chain: EVQLVESGGGLVQAGGSLRLSCTASGRTLSSYTMGWFRQAPGTEREFVAAMTRSGFNTYYADSVKGRFTISRDSTENTMALQMSSLKPEDTAVYYCTAGRGLTSYRADYWGQGTLVTVSSGGGGSGGGGSGGGGSGGGGSGGGGSGGGGSGGGGSGGGGSEVQLVESGGGLVQPGGSLRLSCAASGSTLDYYAIGWFRQAPGKEREGVSCTSNSGSTYYGGSVKGRFTASRDNAKNTVYLQMNSLRPEDTAVYYCVATIGCATLGGTLDVQRYYYRGQGTLVTVSS
B4: Nanobody 262 (7E09-40GS-7C10) (VHH)
chain: EVQLVESGGGLVQAGGSLRLSCAASGRTFSSYIMGWFRQAPGKAREFVADITWGQRPYYADSVKGRFTISRDNAKNTVYLEMNSLKPEDTAVYYCAADLGVVIREEHAYWGQGTLVTVSSGGGGSGGGGSGGGGSGGGGSGGGGSGGGGSGGGGSGGGGSEVQLVESGGGLVQAGGSLRLSCTASGRTLSSYTMGWFRQAPGTEREFVAAMTRSGFNTYYADSVKGRFTISRDSTENTMALQMSSLKPEDTAVYYCTAGRGLTSYRADYWGQGTLVTVSS
B5: 4G10-40GS-7C10 (VHH)
chain: EVQLVESGGGLVQAGGSLRLSCVISEDGVRNYDMGWFRQAPGKEREFVATINWSGGSTNYADSVKGRFTVSRDNAKNTMYLQMDSLKPEDTAVYYCVAAGFYNNYLRTAPNDWNDWGQGTQVTVSSGGGGSGGGGSGGGGSGGGGSGGGGSGGGGSGGGGSGGGGSEVQLVESGGGLVQAGGSLRLSCTASGRTLSSYTMGWFRQAPGTEREFVAAMTRSGFNTYYADSVKGRFTISRDSTENTMALQMSSLKPEDTAVYYCTAGRGLTSYRADYWGQGTLVTVSS
B6: 5E02-40GS-1E11 (VHH)
chain: EVQLVESGGGLVQPGGSLRLSCAASGITLDSIAICWFRQAPGKEREGVSCSRGSDGSTYYADSVKGRFTISRVNAKNTVYLQMNSLKPEDTAVYYCAAAPSIFYSGGYFPSGMDYWGKGTQVTVSSGGGGSGGGGSGGGGSGGGGSGGGGSGGGGSGGGGSGGGGSEVQLVESGGGLVQPGGSLRLSCAASGSTRSVNPMAWFRQAPGRQREWVATISRSGYATYADSVKGRFTISGDNAKSSVYLQMNSLKPEDTAVYYCVTGTYWGQGTLVTVSS
B7: 1E11-40GS-4G10 (VHH)
chain: EVQLVESGGGLVQPGGSLRLSCAASGSTRSVNPMAWFRQAPGRQREWVATISRSGYATYADSVKGRFTISGDNAKSSVYLQMNSLKPEDTAVYYCVTGTYWGQGTLVTVSSGGGGSGGGGSGGGGSGGGGSGGGGSGGGGSGGGGSGGGGSEVQLVESGGGLVQAGGSLRLSCVISEDGVRNYDMGWFRQAPGKEREFVATINWSGGSTNYADSVKGRFTVSRDNAKNTMYLQMDSLKPEDTAVYYCVAAGFYNNYLRTAPNDWNDWGQGTQVTVSS
B8: Nanobody 115 (11B09-40GS-13F07) (VHH)
chain: EVQLVESGGGLVQAGGSLRLSCAASRLTFNHYNMGWFRQAPGKERERVAEVTWSGDKIYYVDSVKGRFTISRDNTPNPVYLYLQMNSLKPEDTAVYYCATAPRGLPYANGYWGQGTLVTVSSGGGGSGGGGSGGGGSGGGGSGGGGSGGGGSGGGGSGGGGSEVQLVESGGGLVQAGGSLRLSCAASGNTFSTNPMYWYRQAEGKQRELVASISSRGITNYADSVRGRFSISRDNTKDTVYLQMNSLKPEDTAVYYCRLASLSSGTVYWGKGTLVTVSS
B9: 5E02-40GS-14E10 (VHH)
chain: EVQLVESGGGLVQPGGSLRLSCAASGITLDSIAICWFRQAPGKEREGVSCSRGSDGSTYYADSVKGRFTISRVNAKNTVYLQMNSLKPEDTAVYYCAAAPSIFYSGGYFPSGMDYWGKGTQVTVSSGGGGSGGGGSGGGGSGGGGSGGGGSGGGGSGGGGSGGGGSEVQLVESGGGLVQPGGSLRLSCAASGRIFSINTMGWYRQAPGKQRELVAGVTINAITNYADSVKGRFTISRDNAKNTVWLQMNSLKPEDTAVYYCHAWARSSGSAPYSQNWGQGTQVTVSS
B10: Nanobody 260 (1E11-40GS-2B10) (VHH)
chain: EVQLVESGGGLVQPGGSLRLSCAASGSTRSVNPMAWFRQAPGRQREWVATISRSGYATYADSVKGRFTISGDNAKSSVYLQMNSLKPEDTAVYYCVTGTYWGQGTLVTVSSGGGGSGGGGSGGGGSGGGGSGGGGSGGGGSGGGGSGGGGSEVQLVESGGGLVQPGGSLRLSCAASGSIFSINNMGWYRQAPGKQRELVTVVTSNLITTYADSVKGRFTISRDNAKNTVYLQMNSLKPEDTAVYYCNAWARSVGSVPYSQFWGQGTLVTVSS
B11: Nanobody 064 (13F07-40GS-7C10) (VHH)
chain: EVQLVESGGGLVQAGGSLRLSCAASGNTFSTNPMYWYRQAEGKQRELVASISSRGITNYADSVRGRFSISRDNTKDTVYLQMNSLKPEDTAVYYCRLASLSSGTVYWGKGTLVTVSSGGGGSGGGGSGGGGSGGGGSGGGGSGGGGSGGGGSGGGGSEVQLVESGGGLVQAGGSLRLSCTASGRTLSSYTMGWFRQAPGTEREFVAAMTRSGFNTYYADSVKGRFTISRDSTENTMALQMSSLKPEDTAVYYCTAGRGLTSYRADYWGQGTLVTVSS
B12: Nanobody 087 (1E11-40GS-7C10) (VHH)
chain: EVQLVESGGGLVQPGGSLRLSCAASGSTRSVNPMAWFRQAPGRQREWVATISRSGYATYADSVKGRFTISGDNAKSSVYLQMNSLKPEDTAVYYCVTGTYWGQGTLVTVSSGGGGSGGGGSGGGGSGGGGSGGGGSGGGGSGGGGSGGGGSEVQLVESGGGLVQAGGSLRLSCTASGRTLSSYTMGWFRQAPGTEREFVAAMTRSGFNTYYADSVKGRFTISRDSTENTMALQMSSLKPEDTAVYYCTAGRGLTSYRADYWGQGTLVTVSS
B13: 1E11-40GS-5E02 (VHH)
chain: EVQLVESGGGLVQPGGSLRLSCAASGSTRSVNPMAWFRQAPGRQREWVATISRSGYATYADSVKGRFTISGDNAKSSVYLQMNSLKPEDTAVYYCVTGTYWGQGTLVTVSSGGGGSGGGGSGGGGSGGGGSGGGGSGGGGSGGGGSGGGGSEVQLVESGGGLVQPGGSLRLSCAASGITLDSIAICWFRQAPGKEREGVSCSRGSDGSTYYADSVKGRFTISRVNAKNTVYLQMNSLKPEDTAVYYCAAAPSIFYSGGYFPSGMDYWGKGTQVTVSS
B14: 3E10-40GS-2B10 (VHH)
chain: EVQLVESGGGLVQAGGSLRLSCTASGHTFSSYTMGWFRQAPGKEREFVAAMTRSGFNTHYSDSVKGRFTISRDNTSRDNTKITMALQMNSLKPEDTAVYYCTTGRGLTSYVANFWGQGTQVTVSSGGGGSGGGGSGGGGSGGGGSGGGGSGGGGSGGGGSGGGGSEVQLVESGGGLVQPGGSLRLSCAASGSIFSINNMGWYRQAPGKQRELVTVVTSNLITTYADSVKGRFTISRDNAKNTVYLQMNSLKPEDTAVYYCNAWARSVGSVPYSQFWGQGTLVTVSS
B15: 1E11-40GS-14B10 (VHH)
chain: EVQLVESGGGLVQPGGSLRLSCAASGSTRSVNPMAWFRQAPGRQREWVATISRSGYATYADSVKGRFTISGDNAKSSVYLQMNSLKPEDTAVYYCVTGTYWGQGTLVTVSSGGGGSGGGGSGGGGSGGGGSGGGGSGGGGSGGGGSGGGGSEVQLVESGGGLVQPGGSLRLSCAASGRIFSINNMGWYHQAPGKQRELVATITMNGITTYADSVKGRFTISRDNAKNTVYLQMNSLKPEDTAVYYCSCWVRSSGGDPYRDYWGQGTQVTVSS
B16: Nanobody 272 (11B09-40GS-10C05) (VHH)
chain: EVQLVESGGGLVQAGGSLRLSCAASRLTFNHYNMGWFRQAPGKERERVAEVTWSGDKIYYVDSVKGRFTISRDNTPNPVYLYLQMNSLKPEDTAVYYCATAPRGLPYANGYWGQGTLVTVSSGGGGSGGGGSGGGGSGGGGSGGGGSGGGGSGGGGSGGGGSEVQLVESGGGLVQPGGSLRLSCAASGSIFSINTMGWYRQAPGKQRDLVASITMNQVPNYADSVQGRFTISRDNVRNTVHLQMNAVKPEDTADYFCNAWVRSSGASPYTNYWGQGTLVTVSS
B17: Nanobody 302 (5H01-40GS-7C10) (VHH)
chain: EVQLVESGGGLVQPGGSLRLSCAASGSTLDYYAIGWFRQAPGKEREGVSCTSNSGSTYYGGSVKGRFTASRDNAKNTVYLQMNSLRPEDTAVYYCVATIGCATLGGTLDVQRYYYRGQGTLVTVSSGGGGSGGGGSGGGGSGGGGSGGGGSGGGGSGGGGSGGGGSEVQLVESGGGLVQAGGSLRLSCTASGRTLSSYTMGWFRQAPGTEREFVAAMTRSGFNTYYADSVKGRFTISRDSTENTMALQMSSLKPEDTAVYYCTAGRGLTSYRADYWGQGTLVTVSS
B18: 3E10-40GS-5H01 (VHH)
chain: EVQLVESGGGLVQAGGSLRLSCTASGHTFSSYTMGWFRQAPGKEREFVAAMTRSGFNTHYSDSVKGRFTISRDNTSRDNTKITMALQMNSLKPEDTAVYYCTTGRGLTSYVANFWGQGTQVTVSSGGGGSGGGGSGGGGSGGGGSGGGGSGGGGSGGGGSGGGGSEVQLVESGGGLVQPGGSLRLSCAASGSTLDYYAIGWFRQAPGKEREGVSCTSNSGSTYYGGSVKGRFTASRDNAKNTVYLQMNSLRPEDTAVYYCVATIGCATLGGTLDVQRYYYRGQGTQVTVSS

For this experiment, the target named is PcrV of P. aeruginosa strain PA103 (on TTSS-induced bacteria) (Pseudomonas aeruginosa strain PA103). The experiment can be described thus: cell-based or functional assay.
In the case of B1, the % inhibition in P3X63 cytotoxicity assay, extract 1/150 was determined as 61%.

B2 displayed a % inhibition in P3X63 cytotoxicity assay, extract 1/150 of 47%.

Regarding B3, the % inhibition in P3X63 cytotoxicity assay, extract 1/150 is 63%.

Molecule B4 had a % inhibition in P3X63 cytotoxicity assay, extract 1/150 of 48%.

The molecule B5 had a % inhibition in P3X63 cytotoxicity assay, extract 1/150 of 81%.

As to B6, the % inhibition in P3X63 cytotoxicity assay, extract 1/150 is 60%.

B7: the % inhibition in P3X63 cytotoxicity assay, extract 1/150 was determined as 67%.

For B8, the % inhibition in P3X63 cytotoxicity assay, extract 1/150 was 82%.

Molecule B9 yielded a % inhibition in P3X63 cytotoxicity assay, extract 1/150 of 48%.

Turning to B10, the % inhibition in P3X63 cytotoxicity assay, extract 1/150 worked out at 57%.

Take B11: the % inhibition in P3X63 cytotoxicity assay, extract 1/150 is 74%.

In turn, B12 registered a % inhibition in P3X63 cytotoxicity assay, extract 1/150 of 49%.

For the molecule B13, the % inhibition in P3X63 cytotoxicity assay, extract 1/150 stood at 44%.

B14 returned a % inhibition in P3X63 cytotoxicity assay, extract 1/150 of 52%.

Molecule B15 displayed a % inhibition in P3X63 cytotoxicity assay, extract 1/150 of 52%.

The molecule B16 came in with a % inhibition in P3X63 cytotoxicity assay, extract 1/150 of 66%.

Take B17: the % inhibition in P3X63 cytotoxicity assay, extract 1/150 worked out at 68%.

B18 had a % inhibition in P3X63 cytotoxicity assay, extract 1/150 of 85%.
